This is an account of results in patent publication US11246958B2, “Haemostatic compositions” (HAEMOSTATIX LIMITED, priority 2015, dated 2022).

Assay [1] has as its target T1, purified human fibrinogen (Homo sapiens, UniProt P02675+P02679).
T1 sequence (P02679 27-437 isoform P02679-2 limits assumed): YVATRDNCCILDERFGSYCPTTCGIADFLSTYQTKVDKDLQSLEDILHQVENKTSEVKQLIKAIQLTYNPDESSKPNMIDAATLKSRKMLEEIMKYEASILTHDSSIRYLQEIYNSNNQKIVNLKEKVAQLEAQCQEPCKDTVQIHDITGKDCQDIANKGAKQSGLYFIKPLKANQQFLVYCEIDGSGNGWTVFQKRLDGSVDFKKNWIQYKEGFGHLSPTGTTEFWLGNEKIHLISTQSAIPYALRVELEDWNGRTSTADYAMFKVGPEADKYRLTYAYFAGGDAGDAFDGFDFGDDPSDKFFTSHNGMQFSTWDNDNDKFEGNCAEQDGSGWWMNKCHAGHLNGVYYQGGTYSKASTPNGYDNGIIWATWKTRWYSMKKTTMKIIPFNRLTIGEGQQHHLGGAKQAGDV
T1 sequence (P02675 31-491): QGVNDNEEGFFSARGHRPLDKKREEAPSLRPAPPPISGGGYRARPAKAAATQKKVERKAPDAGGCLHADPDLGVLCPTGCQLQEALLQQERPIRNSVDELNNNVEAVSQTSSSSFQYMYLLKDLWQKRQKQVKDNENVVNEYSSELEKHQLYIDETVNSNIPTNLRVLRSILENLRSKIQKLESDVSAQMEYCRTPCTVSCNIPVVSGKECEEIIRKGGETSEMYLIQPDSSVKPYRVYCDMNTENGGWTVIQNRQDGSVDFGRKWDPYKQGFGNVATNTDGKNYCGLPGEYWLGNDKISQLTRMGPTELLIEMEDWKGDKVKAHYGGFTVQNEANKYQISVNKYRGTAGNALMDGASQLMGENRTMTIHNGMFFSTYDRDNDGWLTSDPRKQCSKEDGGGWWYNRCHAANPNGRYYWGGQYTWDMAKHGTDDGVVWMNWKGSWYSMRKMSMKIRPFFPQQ
T1 sequence (P02671 20-629 partner limits assumed): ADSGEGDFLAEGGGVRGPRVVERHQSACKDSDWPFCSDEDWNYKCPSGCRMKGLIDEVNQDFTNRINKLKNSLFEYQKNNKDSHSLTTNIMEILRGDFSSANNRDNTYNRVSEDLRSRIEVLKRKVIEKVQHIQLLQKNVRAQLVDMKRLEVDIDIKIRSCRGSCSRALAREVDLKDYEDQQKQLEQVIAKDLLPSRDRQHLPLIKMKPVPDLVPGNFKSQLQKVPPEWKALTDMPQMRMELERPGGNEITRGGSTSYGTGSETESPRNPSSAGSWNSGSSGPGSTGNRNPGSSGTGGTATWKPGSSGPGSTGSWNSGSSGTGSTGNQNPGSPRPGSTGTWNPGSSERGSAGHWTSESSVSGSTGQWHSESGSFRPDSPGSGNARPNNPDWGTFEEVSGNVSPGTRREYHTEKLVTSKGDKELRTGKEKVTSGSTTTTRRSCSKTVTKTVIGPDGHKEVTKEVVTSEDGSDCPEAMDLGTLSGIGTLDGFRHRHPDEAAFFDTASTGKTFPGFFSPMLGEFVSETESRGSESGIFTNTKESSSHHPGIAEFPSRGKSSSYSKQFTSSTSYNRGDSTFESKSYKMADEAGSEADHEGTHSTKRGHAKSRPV
The assay can be described thus: Copolymerisation of peptide dendrimers with purified human fibrinogen, clotting time on KC4 Delta coagulation analyser. It counts as biochemical. To be noted: for activity of mixtures of peptide conjugate and peptide dendrimer in copolymerising with fibrinogen: conjugate 2 mg/ml mixed with Peptide Dendrimer No. 3 or 4 at 0.025-0.5 mg/ml. The protocol: The ability of Peptide Dendrimer No. 12 to polymerise fibrinogen was assessed. 30 μl of dendrimer in solution, at concentration ranging from 0.005-2 mg/ml, was added to 100 μl purified human fibrinogen at 3 mg/ml (the level of fibrinogen found in the blood). Polymerisation of fibrinogen was analysed using a Sigma Amelung KC4 Delta coagulation analyser.
The ability of Peptide Dendrimer Nos. 4, 5, 10, 11, and 12 to copolymerise with fibrinogen was assessed using the same method described in Example 2. The concentration of each dendrimer was varied from 0.005-0.5 mg/ml.
The ability of the dendrimers to copolymerise with fibrinogen was assessed using the same method described in Example 2, for a concentration of each dendrimer ranging from 0.005-0.5 mg/ml.
Peptide Conjugate No. 1 or 2 (2 mg/ml) was mixed with Peptide Dendrimer No. 3 or 4, and fibrinogen, and the ability of the mixtures to copolymerise with fibrinogen was assessed using the same method described in Example 2, for a concentration of each dendrimer ranging from 0.025-0.5 mg/ml.

Assay [2] concerns the target T2, fibrinogen in human plasma (Homo sapiens, UniProt P02675+P02679).
T2 construct: from tissue; host or cells: human plasma
T2 sequence (P02679 27-437 isoform P02679-2 limits assumed): T1 sequence (P02679 27-437 isoform P02679-2 limits assumed)
T2 sequence (P02675 31-491): T1 sequence (P02675 31-491)
T2 sequence (P02671 20-629 partner limits assumed): T1 sequence (P02671 20-629 partner limits assumed)
In words: Polymerisation of fibrinogen in human plasma by peptide dendrimers. It counts as biochemical. The following applies: 30 μL dendrimer 0.25 mg/ml in 100 μL human plasma, 37° C. The protocol: 30 μL of each dendrimer (at a concentration of 0.25 mg/ml) was added to 100 μL human plasma at 37° C., and polymerisation of fibrinogen was determined using a Sigma Amelung KC4 Delta coagulation analyzer.

Where no end group is shown, it is not given here.

Consider “Peptide Conjugate No. 1: two GPRP fibrinogen-binding peptides each attached by a linker to a lysine residue, second attached by amino-terminal end and amidated (peptide 2 GPRP-NH2; also: each GPRP attached by a linker to a lysine residue, second attached by amino-terminal end)”, for which the “activity of mixtures of peptide conjugate and peptide dendrimer in copolymerising with fibrinogen” value in assay [1] is “not active”.

With “Peptide Conjugate No. 2: GHRPY peptide and reverse sequence YPRHG (amidated), each attached by a linker to a lysine residue (peptide 2 YPRHG-NH2; also: each peptide attached by a linker to a lysine residue)”, the “activity of mixtures of peptide conjugate and peptide dendrimer in copolymerising with fibrinogen” value in assay [1] was “synergistic and increased activity”.

With “Peptide Dendrimer No. 9: three-branch dendrimer, two GPRPFPA peptides and one APFPRPG attached by its amino-terminal end, carboxy-terminal amide (chain 2 APFPRPG-NH2; not fully specified; also: three-branch dendrimer: two GPRPFPA and one APFPRPG attached by amino-terminal end; listed as Homo sapiens)”, in assay [1] (dendrimer 0.005-0.5 mg/ml, fibrinogen 3 mg/ml), the “ability to copolymerise with fibrinogen” value is on record as “very active in copolymerising with fibrinogen”. In addition, the “ability to polymerise fibrinogen in human plasma” value in assay [2] is “not able to polymerise fibrinogen in human plasma”.
